Data: PMC3753316, “The Interaction between Factor H and Von Willebrand Factor” (PLoS ONE, 2013)

How the values were obtained:
[1] = biological target: recombinant VWF-A2 as used in the ELISA and Biacore experiments (human) (UniProt P04275); experiment: SPR; Biacore 3000, 25 C; VWF-A2 (1000 RU) or VWF-A3 (800 RU) immobilised; fH 40 to 640 nM, 20 uL/min; for VWF-A2 responses at equilibrium fitted to a one-site binding isotherm
[2] = biological target: plasma purified human VWF (human); experiment: SPR; Biacore 3000, 25 C; VWF immobilised by amine coupling (2100 RU); fH 5 to 320 nM in HBS with 50 uM ZnCl2, 30 uL/min; global fit to two-state model; apparent KD
[3] = biological target: recombinant His-tagged VWF-A1 domain (amino acids Q1238-D1471) (human); experiment: SPR; Biacore 3000, 25 C; VWF-A1 immobilised (1500 RU); fH 40 to 640 nM, 20 uL/min; fitted to two-state model; apparent KD
[4] = biological target: T1, plasma purified human factor H (human, UniProt P08603 19-1231); experiment: co-IP; plasma-purified fH (30 nM) incubated with His-tagged VWF-A1, -A2 (E. coli or HEK 293), -A3 or Myc-tagged VWF-BC (100 nM); precipitated with anti-fH antibody or IgG; blot anti-VWF; details: both partners purified
T1 construct: complement factor H, human, purified from plasma (150 kD, 20 SCRs); also the endogenous protein in normal serum; also called fH; complement factor H; source: bought: Complement Technology Inc., plasma purified; endogenous, normal human serum
T1 sequence (P08603 19-1231): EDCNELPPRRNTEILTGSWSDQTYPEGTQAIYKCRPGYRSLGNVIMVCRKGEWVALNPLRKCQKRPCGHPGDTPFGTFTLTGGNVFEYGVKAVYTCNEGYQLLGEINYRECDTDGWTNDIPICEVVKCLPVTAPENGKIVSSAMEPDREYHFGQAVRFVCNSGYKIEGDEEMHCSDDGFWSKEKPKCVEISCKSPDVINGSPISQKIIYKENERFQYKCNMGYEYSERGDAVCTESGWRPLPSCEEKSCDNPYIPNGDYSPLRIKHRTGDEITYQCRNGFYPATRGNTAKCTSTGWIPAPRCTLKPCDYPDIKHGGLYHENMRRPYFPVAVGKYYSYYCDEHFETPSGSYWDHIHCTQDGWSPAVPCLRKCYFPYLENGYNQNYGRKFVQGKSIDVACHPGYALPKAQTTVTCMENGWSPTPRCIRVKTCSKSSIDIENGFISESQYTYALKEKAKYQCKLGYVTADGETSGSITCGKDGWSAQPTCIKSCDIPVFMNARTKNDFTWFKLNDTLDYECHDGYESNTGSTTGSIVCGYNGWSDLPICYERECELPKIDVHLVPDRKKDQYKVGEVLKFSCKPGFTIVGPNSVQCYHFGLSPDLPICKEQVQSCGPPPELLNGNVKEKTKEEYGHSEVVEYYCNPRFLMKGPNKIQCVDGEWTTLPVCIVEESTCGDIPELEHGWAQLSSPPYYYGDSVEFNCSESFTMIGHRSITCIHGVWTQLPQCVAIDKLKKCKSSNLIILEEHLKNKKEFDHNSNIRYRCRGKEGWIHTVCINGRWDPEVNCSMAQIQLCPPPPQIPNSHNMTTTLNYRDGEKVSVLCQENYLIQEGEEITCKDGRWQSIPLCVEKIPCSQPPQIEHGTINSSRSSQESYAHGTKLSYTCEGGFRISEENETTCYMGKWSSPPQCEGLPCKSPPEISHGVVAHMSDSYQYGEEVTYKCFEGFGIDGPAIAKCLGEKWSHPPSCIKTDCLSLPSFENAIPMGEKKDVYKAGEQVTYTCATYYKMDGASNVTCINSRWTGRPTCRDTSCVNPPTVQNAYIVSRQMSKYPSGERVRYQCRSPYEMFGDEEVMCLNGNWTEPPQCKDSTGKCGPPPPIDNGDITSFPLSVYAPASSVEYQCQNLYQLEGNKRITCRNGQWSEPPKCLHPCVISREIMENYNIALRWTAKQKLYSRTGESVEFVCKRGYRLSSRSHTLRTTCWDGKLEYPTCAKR

[5] = biological target: T2, recombinant full-length wild type human fH (F4 with SCRs 1-20, amino acids M1-R1231) (human, UniProt P08603 19-1231); experiment: pull-down; GST-VWF-A2 (100 nM) incubated with recombinant F4, F3, F2 or F1 (30 nM each); glutathione agarose beads, overnight 4 C; blot polyclonal or monoclonal (90X) anti-fH; details: both partners purified
T2 construct: signal peptide in the construct; complement factor H, human, SCRs 1-20, amino acids M1-R1231, in pSecTag2B His tag vector; also called full-length recombinant fH; source: HEK 293, stably transfected, secreted into serum-free medium, purified (Ni-NTA)
T2 sequence (P08603 19-1231): as above

[6] = biological target: T3, truncated fH F3 with SCRs 1-15, amino acids M1-G928 (human, UniProt P08603 19-928); experiment: as above; details: both partners purified
T3 construct: signal peptide in the construct; complement factor H, human, SCRs 1-15, amino acids M1-G928, in pSecTag2B His tag vector; source: HEK 293, stably transfected, secreted into serum-free medium, purified (Ni-NTA)
T3 sequence (P08603 19-928): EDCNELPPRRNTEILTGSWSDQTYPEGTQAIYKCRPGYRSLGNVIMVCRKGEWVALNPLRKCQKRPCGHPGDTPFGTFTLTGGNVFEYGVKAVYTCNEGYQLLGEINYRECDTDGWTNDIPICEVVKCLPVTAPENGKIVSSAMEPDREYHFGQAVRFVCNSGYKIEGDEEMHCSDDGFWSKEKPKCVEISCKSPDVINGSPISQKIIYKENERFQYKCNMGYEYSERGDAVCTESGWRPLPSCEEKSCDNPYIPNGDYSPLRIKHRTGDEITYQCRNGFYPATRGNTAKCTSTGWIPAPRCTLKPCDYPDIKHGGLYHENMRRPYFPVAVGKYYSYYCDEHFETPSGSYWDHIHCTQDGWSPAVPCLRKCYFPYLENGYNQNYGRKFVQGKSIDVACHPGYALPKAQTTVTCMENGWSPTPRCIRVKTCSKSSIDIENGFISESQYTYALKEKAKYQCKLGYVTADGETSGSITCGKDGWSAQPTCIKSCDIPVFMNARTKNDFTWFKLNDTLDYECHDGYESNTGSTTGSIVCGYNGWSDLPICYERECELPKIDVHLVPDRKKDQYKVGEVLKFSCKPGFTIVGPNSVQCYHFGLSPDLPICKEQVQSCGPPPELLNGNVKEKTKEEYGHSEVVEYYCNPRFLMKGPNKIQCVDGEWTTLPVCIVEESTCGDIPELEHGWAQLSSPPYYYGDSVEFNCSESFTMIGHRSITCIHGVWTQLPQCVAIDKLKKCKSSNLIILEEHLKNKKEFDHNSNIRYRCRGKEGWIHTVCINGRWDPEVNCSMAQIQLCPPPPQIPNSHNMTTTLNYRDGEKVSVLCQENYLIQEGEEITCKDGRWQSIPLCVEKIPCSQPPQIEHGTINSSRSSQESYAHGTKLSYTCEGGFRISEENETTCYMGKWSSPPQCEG

[7] = biological target: T4, truncated fH F2 with SCRs 1-10, amino acids M1-E625 (human, UniProt P08603 19-625); experiment: as above; details: both partners purified
T4 construct: signal peptide in the construct; complement factor H, human, SCRs 1-10, amino acids M1-E625, in pSecTag2B His tag vector; source: HEK 293, stably transfected, secreted into serum-free medium, purified (Ni-NTA)
T4 sequence (P08603 19-625): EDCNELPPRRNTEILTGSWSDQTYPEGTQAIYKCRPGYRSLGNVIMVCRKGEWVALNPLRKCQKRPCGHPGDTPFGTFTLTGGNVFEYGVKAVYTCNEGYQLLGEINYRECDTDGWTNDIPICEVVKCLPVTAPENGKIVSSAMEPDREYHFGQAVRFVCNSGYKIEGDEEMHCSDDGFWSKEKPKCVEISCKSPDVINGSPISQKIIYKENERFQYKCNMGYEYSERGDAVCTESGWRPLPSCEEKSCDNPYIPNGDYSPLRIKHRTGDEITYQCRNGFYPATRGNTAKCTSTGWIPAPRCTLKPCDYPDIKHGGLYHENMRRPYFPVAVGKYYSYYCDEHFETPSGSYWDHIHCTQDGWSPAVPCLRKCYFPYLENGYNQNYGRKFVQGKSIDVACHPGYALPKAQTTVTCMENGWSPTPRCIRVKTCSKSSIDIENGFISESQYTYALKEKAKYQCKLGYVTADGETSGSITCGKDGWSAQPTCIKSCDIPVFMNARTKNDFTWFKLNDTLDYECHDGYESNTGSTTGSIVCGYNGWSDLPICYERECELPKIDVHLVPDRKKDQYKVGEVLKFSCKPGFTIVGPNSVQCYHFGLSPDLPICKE

Q: “plasma purified human factor H (from UniProt P08603 19-1231) (natural protein)” was tested. Which Kd [1] did it give?
A: 147 nM

Q: What about the Kd [2] of the same molecule?
A: 32.9 nM

Q: And the ka1 (binding step, two-state model) [2]?
A: 60000 M⁻¹ s⁻¹

Q: And the ka2 (forward rate, conformational change step) [2]?
A: 0.007 s⁻¹

Q: And the kd1 (binding step, two-state model) [2]?
A: 0.0158 s⁻¹

Q: And the kd2 (backward rate, conformational change step) [2]?
A: 0.0009 s⁻¹

Q: And the Kd [3]?
A: 161 nM

Q: And the ka1 (binding step, two-state model) [3]?
A: 53600 M⁻¹ s⁻¹

Q: What about the ka2 (forward rate, conformational change step) [3] of the same molecule?
A: 0.00797 s⁻¹

Q: What about the kd1 (binding step, two-state model) [3] of the same molecule?
A: 0.0358 s⁻¹

Q: And the kd2 (backward rate, conformational change step) [3]?
A: 0.00254 s⁻¹

B1: recombinant His-tagged VWF-A2 (amino acids G1481-R1668), purified from transfected E. coli (domain or fragment)
chain: GLLGVSTLGPKRNSMVLDVAFVLEGSDKIGEADFNRSKEFMEEVIQRMDVGQDSIHVTVLQYSYMVTVEYPFSEAQSKGDILQRVREIRYQGGNRTNTGLALRYLSDHSFLVSQGDREQAPNLVYMVTGNPASDEIKRLPGDIQVVPIGVGPNANVQELERIGWPNAPILIQDFETLPREAPDLVLQR
notes: von Willebrand factor A2 domain, amino acids G1481-R1668; source: E. coli, purified (Ni-NTA)
Q: Does B1 bind [4]?
A: binds

B2: recombinant His-tagged VWF-A2 (amino acids P1480-G1672), purified from transfected HEK 293 cells (domain or fragment)
chain: PGLLGVSTLGPKRNSMVLDVAFVLEGSDKIGEADFNRSKEFMEEVIQRMDVGQDSIHVTVLQYSYMVTVEYPFSEAQSKGDILQRVREIRYQGGNRTNTGLALRYLSDHSFLVSQGDREQAPNLVYMVTGNPASDEIKRLPGDIQVVPIGVGPNANVQELERIGWPNAPILIQDFETLPREAPDLVLQRCCSG
notes: von Willebrand factor A2 domain, amino acids P1480-G1672, in pSecTag2B His-tag vector; also called His-tagged A2; source: HEK 293, purified (Ni-NTA)
Q: Does B2 bind [4]?
A: binds

B3: GST-VWF-A2 fusion protein (amino acids P1480-G1672) (domain or fragment)
chain: B2 chain
notes: von Willebrand factor A2 domain, amino acids P1480-G1672, in pGEX-2T GST vector; also called GST-A2; recombinant VWF-A2; source: E. coli, purified (glutathione agarose beads)
Q: Does B3 bind [5]?
A: binds

Q: Does B3 bind [6]?
A: binds

Q: Does B3 bind [7]?
A: binds
